Results from patent US20200247886A1 (ZLIP, published 2020).
Positions count from the first letter of the chain named. Blank lines part the entries; values can stand above or below the binder they belong to.

Columns and labels:
[1] = target: T1, human CD47 expressed on cells (CD47 expressing CHO cells, Jurkat, HL60, DLD1, Raji) (human, UniProt Q08722 19-292); assay: flow cytometry on human platelets, MFI
T1 construct: also called CHO-CD47; IAP

[2] = target: T1, human CD47 expressed on cells (CD47 …); assay: flow cytometry on human red blood cells, MFI
[3] = target: T2, CD47 protein (construct not stated; SPR antigen, CD47 coated ELISA plates) (Homo sapiens (Human), UniProt Q08722 19-139, limits assumed); assay: ELISA on CD47, OD450 against Log[M]; column headed KD beside the legend
T2 construct: also called the antigen

[4] = target: T1, human CD47 expressed on cells (CD47 …); assay: IC50 as grade, SIRPα blocking on Raji cells; legend +++: <1 nM
[5] = target: T1, human CD47 expressed on cells (CD47 …); assay: flow cytometry blocking assay on Raji cells, SIRPα is the blocked ligand, MFI
[6] = target: T1, human CD47 expressed on cells (CD47 …); assay: flow cytometry on human platelets, donor 2, MFI
[7] = target: T1, human CD47 expressed on cells (CD47 …); assay: flow cytometry on human red blood cells, donor 1, MFI
[8] = target: T1, human CD47 expressed on cells (CD47 …); assay: flow cytometry on human red blood cells, donor 2, MFI
[9] = target: T1, human CD47 expressed on cells (CD47 …); assay: flow cytometry SIRP-alpha blocking assay on Raji cells, MFI
[10] = target: T1, human CD47 expressed on cells (CD47 …); assay: flow cytometry on human platelets, donor 1, MFI
[11] = target: T1, human CD47 expressed on cells (CD47 …); assay: flow cytometry on CD47 expressing CHO cells, MFI (FL-4)
CD47 on monkey RBC = target: T3, CD47 on monkey RBC (Macaca fascicularis, UniProt A0A2K5X523); assay: flow cytometry on cynomolgus monkey red blood cells expressing CD47, MFI
T3 construct: native, on red blood cells; also called cynomolgus monkey red blood cells expressing CD47

[12] = target: T1, human CD47 expressed on cells (CD47 …); assay: flow cytometry on DLD1 cells, IgG, MFI
[13] = target: T1, human CD47 expressed on cells (CD47 …); assay: flow cytometry on DLD1 cells, IgG, frequency
CHO/mCD47-GFP = target: T4, CHO/mCD47-GFP (mouse, UniProt Q61735); assay: flow cytometry on CHO cells expressing mouse CD47-GFP, binding percentage
T4 construct: on the cell surface; also called mouse CD47 expressed on CHO cells; CHO cell expressing mouse CD47
T4 sequence (receptor, looked up): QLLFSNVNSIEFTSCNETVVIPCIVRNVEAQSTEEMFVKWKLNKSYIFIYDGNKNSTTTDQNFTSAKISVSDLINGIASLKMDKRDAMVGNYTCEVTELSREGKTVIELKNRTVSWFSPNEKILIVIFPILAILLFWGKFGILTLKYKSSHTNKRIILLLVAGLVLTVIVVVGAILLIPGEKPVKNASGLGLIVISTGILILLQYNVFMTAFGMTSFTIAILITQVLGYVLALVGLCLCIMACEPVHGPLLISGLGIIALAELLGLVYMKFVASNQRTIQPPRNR

B1: H-ABU10-IgG4-P (antibody)
light chain: DIVMTQSPDSLAVSLGERATINCKSSQSLVSSSQKNYLAWYQQKPGQPPKLLIYWASVRDSGVPDRFSGSGSGTDFTLTISSLQAEDVAVYYCQQYYSYPLTFGQGTKVEIK
heavy chain: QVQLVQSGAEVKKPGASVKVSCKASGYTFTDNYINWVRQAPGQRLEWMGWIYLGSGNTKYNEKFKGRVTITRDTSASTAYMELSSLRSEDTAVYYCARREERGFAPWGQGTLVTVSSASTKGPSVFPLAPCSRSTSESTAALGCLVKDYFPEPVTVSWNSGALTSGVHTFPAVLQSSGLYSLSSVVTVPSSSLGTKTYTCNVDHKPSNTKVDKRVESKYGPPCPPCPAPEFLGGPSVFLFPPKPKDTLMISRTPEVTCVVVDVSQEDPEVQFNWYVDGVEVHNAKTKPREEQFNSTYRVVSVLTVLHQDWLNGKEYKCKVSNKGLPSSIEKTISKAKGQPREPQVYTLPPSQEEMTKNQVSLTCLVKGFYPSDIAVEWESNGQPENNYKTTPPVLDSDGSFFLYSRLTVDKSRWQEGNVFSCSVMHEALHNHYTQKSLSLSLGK
EC50 (read off the curve) [1]: ~2 nM | EC50 (read off the curve) [2]: ~4 nM

B3: H-ABU2b (antibody, V domains shown)
VH: QVQLVQSGAEVKKPGASVKVSCKASGYTFTDFYINWVRQAPGQRLEWMGWIYLGSGNTKYNEKFKGRVTITVDTSASTAYMELSSLRSEDTAVYYCARREERGFAYWGQGTLVTVSS
VL: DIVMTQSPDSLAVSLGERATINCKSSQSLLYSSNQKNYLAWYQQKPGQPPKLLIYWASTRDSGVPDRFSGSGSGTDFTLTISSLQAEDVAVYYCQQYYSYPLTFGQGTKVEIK
Kd [3]: 1.3 nM

B4: H-ABU 6 (antibody, V domains shown)
VH: B3 VH with V72R
VL: B1 light chain with V30L, S33N, Y96F
IC50 [4]: < 1 nM | IC50 (read off the curve) [5]: ~0.4 nM

B5: H-ABU 7 (antibody, V domains shown)
VH: B3 VH with F32H, V72R, E101D
VL: B1 light chain with V30L
EC50 (read off the curve) [6]: ~0.6 nM | IC50 [4]: < 1 nM | EC50 (read off the curve) [7]: ~1 nM | EC50 (read off the curve) [8]: ~1 nM | IC50 (read off the curve) [5]: ~0.09 nM

B6: H-ABU2c (antibody, V domains shown)
VH: B3 VH with A24V
VL: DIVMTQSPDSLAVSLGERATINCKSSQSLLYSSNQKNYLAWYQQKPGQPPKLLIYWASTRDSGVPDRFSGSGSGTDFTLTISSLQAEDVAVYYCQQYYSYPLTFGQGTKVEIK
Kd [3]: 1.5 nM

B8: H-ABU 4 (antibody, V domains shown)
VH: B3 VH with F32I, T58V, V72R, E101D
VL: B1 light chain with V30L, S33N, N36Y, V58T, Y96F
IC50 [4]: < 1 nM | IC50 (read off the curve) [5]: ~0.3 nM

B9: H-ABU 39 (antibody, V domains shown)
VH: QVQLVQSGAEVKKPGASVKVSCKTSGYSFTNYWMQWVRQAPGQGLEWIGMIDPSDSESRLNQKFKDRATLTVDTSTSTAYMELSSLRSEDTAVYYCARRGSPMITSFAYWGQGTLVTVSS
VL: DVQITQSPSSLSASVGDRVTITCRASKNIGKYLAWFQQKPGKTNKLLIYSGSTLQSGIPSRFSGSGSGTDFTLTISSLQPEDFATYYCQQHNEYPYTFGGGTKVEIK
notes: Humanized antibody
IC50 (read off the curve) [9]: ~0.3 nM

B14: C-ABU4 (antibody, human IgG4 S228P, kappa, V domains shown)
VH: QVQLQQSGPQLVRPGASVKISCKTSGYSFTNYWMQWVKQRPGQGLEWIGMIDPSDSESRLNQKFKDKATLTVDKSSSTAYMQLSSPTFEDSAVYYCARRGSPMITSFAYWGQGTLVTVSA
VL: DVQITQSPSFLAASPGETITINCRASKNIGKYLAWFQEKPGKTNKLLIYSGSTLQSGIPSRFSGSGSGTDFTLTISSLEPEDFAIYYCQQHNEYPYTFGGGTKLEIKR
notes: Human chimeric IgG4 antibody
EC50 (read off the curve) [11]: ~1 nM

B15: Positive 3-IgG4-P (antibody)
heavy chain: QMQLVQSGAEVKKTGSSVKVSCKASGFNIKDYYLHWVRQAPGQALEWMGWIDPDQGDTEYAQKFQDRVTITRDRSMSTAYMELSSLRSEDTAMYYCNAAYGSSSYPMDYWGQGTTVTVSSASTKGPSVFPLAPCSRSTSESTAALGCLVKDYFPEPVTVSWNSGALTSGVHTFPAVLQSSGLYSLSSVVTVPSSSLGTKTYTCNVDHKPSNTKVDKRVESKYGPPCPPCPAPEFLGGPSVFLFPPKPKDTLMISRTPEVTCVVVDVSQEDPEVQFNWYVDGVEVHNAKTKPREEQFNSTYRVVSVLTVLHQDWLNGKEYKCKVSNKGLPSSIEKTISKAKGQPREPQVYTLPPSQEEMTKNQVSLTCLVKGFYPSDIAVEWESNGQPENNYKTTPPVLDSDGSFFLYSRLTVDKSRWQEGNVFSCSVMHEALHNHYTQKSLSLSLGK
light chain: QMTQSPSAMSASVGDRVTITCKASQDIHRYLSWFQQKPGKVPKHLIYRANRLVSGVPSRFSGSGSGTEFTLTISSLQPEDFATYYCLQYDEFPYTFGGGTKVEIKRTVAAPSVFIFPPSDEQLKSGTASVVCLLNNFYPREAKVQWKVDNALQSGNSQESVTEQDSKDSTYSLSSTLTLSKADYEKHKVYACEVTHQGLSSPVTKSFNRGEC
EC50 (read off the curve) [1]: ~2 nM | EC50 (read off the curve) [2]: ~4 nM | EC50 (read off the curve) (CD47 on monkey RBC): ~0.2 µg/mL

B17: ABU16 (IgG) (antibody, V domains shown)
VH: RVQLQQSGAELVRPGTSVKVSCKASAYAFTNYLIEWVKKRPGQGLEWIGVINPGSGGTNYNEKFKGKATLTADKSSSTAYMQLSSLTSEDSAVYFCARGDGYGSLFAYWGQGTLVTVSA
VL: RHCFNQSPAIMSASPGEKVTMTCSASSSVSYMHWYQQKSGTSPKRWIYDTSNLASGVPVRFSGSGSGTSYSLTISRMEAEDAATYYCQQWSNYPFTFGSGTKLELK
EC50 (read off the curve) [12]: ~4 nM | EC50 (read off the curve) [13]: ~0.4 nM

B18: H-ABU44 (antibody, V domains shown)
VH: QVQLVQSGAEVKKPGASVKVSCKASGYSFTNYHIHWVRQAPGQRLEWIGWIYPGSGNTKYNEKFKGRATLTADTSASTAYMELSSLRSEDTAVYYCARYDYDLYLHSWGQGTLVTVSS
VL: DIQITQSPSSVSASVGDRVTITCHASQNINVWLSWYQQKPGKAPKLLIYKASNLHTGVPSRFSGSGSGTGFTLTISSLQPEDFATYYCQQGQSYPLTFGQGTKLEIK
EC50 (read off the curve) [10]: ~0.1 nM | EC50 (read off the curve) [6]: ~0.1 nM | EC50 (read off the curve) [7]: ~0.2 nM | EC50 (read off the curve) [8]: ~0.2 nM

Next, values leading:

EC50 (read off the curve) [1]: ~2 nM | EC50 (read off the curve) [2]: ~4 nM
B2: H-ABU10-IgG4-PE (antibody)
light chain: B1 light chain
heavy chain: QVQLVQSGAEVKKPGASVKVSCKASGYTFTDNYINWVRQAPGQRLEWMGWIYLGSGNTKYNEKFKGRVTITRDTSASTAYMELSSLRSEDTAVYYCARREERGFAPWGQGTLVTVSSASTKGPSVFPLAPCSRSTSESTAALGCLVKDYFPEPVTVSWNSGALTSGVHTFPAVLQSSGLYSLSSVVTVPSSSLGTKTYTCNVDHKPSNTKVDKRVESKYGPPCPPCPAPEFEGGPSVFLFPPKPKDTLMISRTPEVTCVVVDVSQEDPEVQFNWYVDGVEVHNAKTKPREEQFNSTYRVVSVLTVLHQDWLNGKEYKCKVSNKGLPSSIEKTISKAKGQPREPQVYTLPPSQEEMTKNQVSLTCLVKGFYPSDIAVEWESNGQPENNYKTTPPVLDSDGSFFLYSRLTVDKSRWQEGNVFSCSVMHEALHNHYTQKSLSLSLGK

Kd [3]: 1.6 nM
B7: H-ABU2a (antibody, V domains shown)
VH: B3 VH with V72R
VL: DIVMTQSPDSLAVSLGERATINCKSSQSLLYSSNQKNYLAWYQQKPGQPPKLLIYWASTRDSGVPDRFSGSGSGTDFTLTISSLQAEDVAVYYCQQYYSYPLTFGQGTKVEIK

EC50 (read off the curve) [10]: ~0.6 nM | EC50 (read off the curve) [6]: ~0.6 nM | EC50 (read off the curve) [7]: ~1 nM | EC50 (read off the curve) [8]: ~1 nM | IC50 (read off the curve) [9]: ~0.3 nM
B10: H-ABU 41 (antibody, V domains shown)
VL: B9 VL
VH: B9 VH with V5Q, R67K, T74K
notes: Humanized antibody

EC50 (read off the curve) [10]: ~0.6 nM | EC50 (read off the curve) [6]: ~0.6 nM | EC50 (read off the curve) [7]: ~1 nM | EC50 (read off the curve) [8]: ~1 nM | IC50 (read off the curve) [9]: ~0.3 nM
B11: H-ABU 43 (antibody, V domains shown)
VH: B9 VH with I48M, A68V, L70M, V72R
VL: B9 VL
notes: Humanized antibody

IC50 (read off the curve) [9]: ~0.3 nM
B12: H-ABU 38 (antibody, V domains shown)
VH: B9 VH with T24A, S28T, A79V
VL: B9 VL
notes: Humanized antibody

IC50 (read off the curve) [9]: ~0.3 nM
B13: H-ABU 37 (antibody, V domains shown)
VH: B9 VH with T24A, S28T, I48M, A68V, L70M, V72R, A79V
VL: B9 VL
notes: Humanized antibody

EC50 (read off the curve) [1]: ~2 nM | EC50 (read off the curve) [2]: ~4 nM | EC50 (read off the curve) (CD47 on monkey RBC): ~0.1 µg/mL
B16: Positive 3-IgG4-PE (antibody)
heavy chain: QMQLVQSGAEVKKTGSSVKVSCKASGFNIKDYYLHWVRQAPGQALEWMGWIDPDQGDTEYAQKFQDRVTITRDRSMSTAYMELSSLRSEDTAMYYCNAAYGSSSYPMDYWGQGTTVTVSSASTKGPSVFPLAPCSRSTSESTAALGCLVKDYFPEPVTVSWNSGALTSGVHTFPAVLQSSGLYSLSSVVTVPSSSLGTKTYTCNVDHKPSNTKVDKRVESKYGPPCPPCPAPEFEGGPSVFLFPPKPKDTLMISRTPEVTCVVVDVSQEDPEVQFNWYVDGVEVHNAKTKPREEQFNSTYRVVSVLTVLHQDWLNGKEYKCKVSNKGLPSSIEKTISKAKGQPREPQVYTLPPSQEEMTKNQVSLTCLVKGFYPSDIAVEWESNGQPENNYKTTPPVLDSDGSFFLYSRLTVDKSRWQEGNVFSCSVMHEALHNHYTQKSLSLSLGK
light chain: B15 light chain

binding result (CHO/mCD47-GFP): no binding (tested: about 0.4 ug/ml)
B19: ABU7 (antibody, V domains shown)
VH: EVQLQQSGPELVKPGASVKISCKASGYSFTGYYMNWVKQSPEKSLEWIGEINPSTGGTTYNQKFKAKATLTVDKSSSTAYMQLKSLTFEDSAVYYCAIYDGYEGFAYWGQGTLVTVSA
VL: DIKMTQSPSSMYASLGERVTITCKASQDIKSYLSWYQQKPWKSPKTLIYYATSLADGVPSRFSGSGSGQHYSLTISSLESDDTATYYCLQHGESPFTFGSGTKLEIK
notes: Murine hybridoma monoclonal antibody
